From article PMC7494283 (Cell, 2020)

B1: S2A4 mAb (IgG1) (antibody, V domains shown)
VH: EVQLVESGGGLVQPGGSLRLSCAASGFTFSSYWMNWVRQAPGKGLEWVANIKQDGSEKYYVDSVKGRFTISRDNAKNSLFLQMNSLRAEDTAVYYCARVWWLRGSFDYWGQGTLVTVSS
VL: NFMLTQPHSVSESPGKTVTISCTGSSGSIASNYVQWYQQRPGSAPTTVIYEDNQRPSGVPDRFSGSIDSSSNSASLTISGLKTEDEADYYCQSYDSSNHVVFGGGTKLTVL
B2: S304 mAb (IgG1) (antibody, V domains shown)
VH: EVQLVESGGGLVQPGGSLRLSCAASGFTFSSYDMHWVRQTTGKGLEWVSTIGTAGDTYYPDSVKGRFTISREDAKNSLYLQMNSLRAGDTAVYYCARGDSSGYYYYFDYWGQGTLLTVSS
VL: DIEMTQSPSSLSAAVGDRVTITCRASQSIGSYLNWYQQKPGKAPKLLIYAASSLQSGVPSRFSGSGSGTDFTLTISSLQPEDFAIYYCQQSYVSPTYTFGPGTKVDIK
B3: S2H14 mAb (IgG1) (antibody, V domains shown)
VH: not shown
VL: NFMLTQPHSVSESPGKTVTISCTRSSGSIASNYVQWYQQRPGSSPTTVIYEDNQRPSGVPDRFSGSIDSSSNSASLTISGLKTEDEADYYCQSYDSSNQVFGGGTKLTVL

biological target: SARS-CoV RBD (SARS-CoV (human), isolate , UniProt P59594); assay: ELISA

| Binder | binding result |
| --- | --- |
| B1 | no binding |
| B2 | binds |
| B3 | no binding |
